Measured values from article PMC10296332, “Vertically-Ordered Mesoporous Silica Film Based Electrochemical Aptasensor for Highly Sensitive Detection of Alpha-Fetoprotein in Human Serum”.

Molecular target: T1, alpha-fetoprotein (AFP) (UniProt P02771 19-609)
T1 sequence: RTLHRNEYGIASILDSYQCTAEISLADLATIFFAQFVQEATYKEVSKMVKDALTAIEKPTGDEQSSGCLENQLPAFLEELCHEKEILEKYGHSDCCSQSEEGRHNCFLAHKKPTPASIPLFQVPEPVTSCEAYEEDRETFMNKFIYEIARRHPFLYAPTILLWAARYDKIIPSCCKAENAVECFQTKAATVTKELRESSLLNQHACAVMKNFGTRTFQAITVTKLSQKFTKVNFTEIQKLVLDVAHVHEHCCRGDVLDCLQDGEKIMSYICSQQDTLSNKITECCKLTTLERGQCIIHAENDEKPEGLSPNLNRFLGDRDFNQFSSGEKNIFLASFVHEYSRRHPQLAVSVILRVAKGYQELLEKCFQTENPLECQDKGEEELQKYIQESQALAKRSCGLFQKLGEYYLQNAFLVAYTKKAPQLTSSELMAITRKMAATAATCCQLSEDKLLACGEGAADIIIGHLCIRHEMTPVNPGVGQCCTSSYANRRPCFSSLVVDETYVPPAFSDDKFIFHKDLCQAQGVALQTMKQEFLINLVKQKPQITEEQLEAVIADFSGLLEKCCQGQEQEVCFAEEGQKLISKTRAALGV
Test: electrochemical aptasensor (DPV, CV, EIS; Fe(CN)6 3-/4- probe); immobilized aptamer, BSA-blocked; linear 1 pg/mL-1 ug/mL, LOD 0.31 pg/mL (not a Kd); AFP incubated 1 h at 4 C on aptamer electrode, rinsed with 0.01 M PBS (sodium phosphate) pH 7.4; read-out in 2.5 mM K3/K4[Fe(CN)6], 0.1 M KCl
Conditions: protein: commercial

B1: AFP aptamer (ssDNA)
DNA: GTGACGCTCCTAACGCTGACTCAGGTGCAGTTCTCGACTCGGTCTTGATGTGGGTCCTGTCCGTCCGAACCAATC
modifications: 5'-NH2, coupled to GPTMS epoxy groups on mesoporous silica film
Question: Does B1 bind?
Answer: binds
